Measurements reported in paper PMC10615203, “The 14-3-3 protein OsGF14f interacts with OsbZIP23 and enhances its activity to confer osmotic stress tolerance in rice”.

Assays:
GST-OsbZIP23 = target: T1, GST-OsbZIP23 (Oryza sativa, UniProt Q6Z312); test: EMSA; EMSA kit (Viagene) binding buffer (composition not given), room temperature, 20 min; 6% native PAGE; conditions: protein: recombinant; tags: GST (N-terminal, pGEX-4T-3); chain copies: 2; label: 5' biotin; blunt
T1 sequence: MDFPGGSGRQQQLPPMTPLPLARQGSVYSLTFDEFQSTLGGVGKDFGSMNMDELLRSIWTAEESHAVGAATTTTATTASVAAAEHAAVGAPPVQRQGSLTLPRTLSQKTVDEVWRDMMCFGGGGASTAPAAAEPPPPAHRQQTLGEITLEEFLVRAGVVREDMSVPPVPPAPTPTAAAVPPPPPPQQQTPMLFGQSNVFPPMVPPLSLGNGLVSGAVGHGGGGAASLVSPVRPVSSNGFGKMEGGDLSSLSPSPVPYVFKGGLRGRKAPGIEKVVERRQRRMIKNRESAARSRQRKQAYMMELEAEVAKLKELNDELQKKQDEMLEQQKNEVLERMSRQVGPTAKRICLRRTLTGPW

GST-OsGF14f = target: T2, GST-OsGF14f (Oryza sativa, UniProt Q06967 1-260); test: as above; conditions: protein: recombinant; tags: GST (N-terminal, pGEX-4T-3); chain copies: 2; label: 5' biotin; blunt
T2 sequence: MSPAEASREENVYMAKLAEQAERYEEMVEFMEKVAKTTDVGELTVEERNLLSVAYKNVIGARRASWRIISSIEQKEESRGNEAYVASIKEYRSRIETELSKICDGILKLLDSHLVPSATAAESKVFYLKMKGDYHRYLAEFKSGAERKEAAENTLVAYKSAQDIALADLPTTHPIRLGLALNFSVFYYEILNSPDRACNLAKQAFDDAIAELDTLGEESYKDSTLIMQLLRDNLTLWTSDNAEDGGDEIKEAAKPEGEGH

B1: OsLEA3-2 promoter probe P1 (dsDNA)
DNA 1: ACCCGAGGCACACGTGTCCACCTCACCGGGGCACGTGTCGCGCCGT
DNA 2: ACGGCGCGACACGTGCCCCGGTGAGGTGGACACGTGTGCCTCGGGT
- binding result (GST-OsbZIP23): binds
- binding result (GST-OsGF14f): no binding

B2: OsGF14f promoter probe (dsDNA)
DNA 1: TGGCGCCTTGCCACGTGCCCCCTCCCT
DNA 2: AGGGAGGGGGCACGTGGCAAGGCGCCA
- binding result (GST-OsbZIP23): binds
